Laboratory results published in US20230265192A1 (GIGAGEN, published 2023).
Where a chain is given by its changes, count along the chain named.

B1: antibody A4 (L4H4) (antibody, V domains shown)
VH: QVQLVESGGGVVQPGRSLRISCAASGFTFSSYGIHWVRQAPGKGLQWVAVIWYDGRNKYYADSVKGRFTISRDNSKNTLYLQMNSLRAEDTAVYYCSRSGSFGAFDIWGQGTMVTVSS
VL: EIVLTQSPGTLSLSPGDRATLSCRASQSGSSSYLAWYQQKPGQAPRLLIYGASSRATGIPDRFSGSGSGTDFTLTISRLEPEDFAVYYCQQYGTSPFTSGPGTKVDIK
notes: also called aCTLA-4.29
B2: antibody A10 (L10H10) (antibody, V domains shown)
VH: QVQLVESGGGVVQPGRSLRLSCVASGFTLSSYGMHWVRQAPGKGLEWVAVIWYDGSNKHYADSVKGRFTISRDNSKNTLSLQMNSLRAEDTAVYYCARGGQLGPFDYWGQGTLVTVSS
VL: not shown
notes: also called aCTLA-4.22
B3: antibody A8 (L8H8) (antibody, V domains shown)
VH: B2 VH with V23A, L29F, S31R, S56R, H59Y, S80Y, V93L, Y95S, G99A, Q101E
VL: EIVLTQSPGTLSLSPGERATLSCRASQSVSYLAWYQQKPGQAPRLLIYGASSRATGIPDRFSGSGSGTDFTLTISRLEPEDFAVYYCQQYGSSPWTFGQGTKVEIK
notes: also called aCTLA-4.1
B4: antibody A13 (L13H13) (antibody, V domains shown)
VH: QVQLVESGGGVVQPGRSLRLSCAASGFTFSSYGMHWVRQAPGKGLEWVAVIWYDGRNKDYADSVKGRITISRDNSKNTLYLQMNSLRAEDTAVYYCARGGLLGPYFDYWGQGTLVTVSS
VL: not shown
notes: also called aCTLA-4.14
B5: antibody A6 (L6H6) (antibody, V domains shown)
VH: QVQLVESGGGVVQPGRSLRLSCAASGFTFSSYGMHWVRQAPGKGLEWVAVIWYDGSYKYYADSVKGRFTISRDDSKNTLYLQMSSLRAEDTAVYYCARAPHYAILTGYYEDYWGQGTLVTVSS
VL: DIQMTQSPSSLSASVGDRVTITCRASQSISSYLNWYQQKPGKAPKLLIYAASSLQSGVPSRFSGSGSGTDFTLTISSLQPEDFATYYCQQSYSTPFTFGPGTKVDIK

target: T1, His-tagged human CTLA-4 (CT4-H5229; Acro Biosystems) (human, UniProt P16410 36-161); experiment: SPR (Carterra), soluble human CTLA-4
T1 construct: bought soluble protein; also called soluble human CTLA-4; recombinant human CTLA-4; not shown: His tag
T1 sequence (P16410 36-161 limits assumed): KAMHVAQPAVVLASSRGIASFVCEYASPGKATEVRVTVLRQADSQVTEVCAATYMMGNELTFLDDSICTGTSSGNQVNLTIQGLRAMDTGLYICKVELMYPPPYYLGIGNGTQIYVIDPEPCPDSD

Binder | Kd | koff | kon
B1 | 3 nM | 0.00023 s⁻¹ | 76000 M⁻¹ s⁻¹
B2 | 22 nM | 0.00051 s⁻¹ | 23000 M⁻¹ s⁻¹
B3 | 4.6 nM | 0.00039 s⁻¹ | 85000 M⁻¹ s⁻¹
B4 | 3.2 nM | 0.00042 s⁻¹ | 130000 M⁻¹ s⁻¹
B5 | 5.7 nM | 0.00035 s⁻¹ | 61000 M⁻¹ s⁻¹

target: T1, His-tagged human CTLA-4 (CT4-H5229; …); experiment: SPR (Carterra)
Description: (§1) Then, goat anti-Human IgG Fc (Southern Biotech 2047-01) was coupled for 10 minutes at […] in 10 mM Sodim Acetate pH 4.5 (Carterra Inc.). The surface was then deactivated with 1 M ethanolamine pH 8.5 (Carterra Inc.). Running buffer used for the lawn immobilization was HBS-EPC (10 mM HEPES, 150 mM NaCl, 3 mM EDTA, 0.05% Tween 20, pH 7.4; Teknova).
(§2) The sensor chip was then transferred to a continuous flow microspotter (CFM; Carterra Inc.) for array capturing. The mAb supernatants were diluted 50-fold ([…] final concentration) into HBS-EPC with 1 mg/mL BSA. The samples were each captured twice with 15-minute and 4-minute capture steps on the first and second prints, respectively, to create multiple densities, using a […] flow rate. The running buffer in the CFM was also HBS-EPC.
(§3) Next, the sensor chip was loaded onto an SPR reader (MX-96 system; Ibis Technologies) for the kinetic analysis. CTLA-4 was injected at five increasing concentrations in a four-fold dilution series with concentrations of 1.95, 7.8, 31.25, 125, and 500 nM in running buffer (HBS-EPC with 1.0 mg/mL BSA). CTLA-4 injections were 5 minutes with a 15-minute dissociation at […] in a non-regenerative kinetic series. An injection of the goat anti-Human IgG Fc capture antibody at […] was injected at the end of the series to verify the capture level of each mAb. Binding data was double referenced by subtracting an interspot surface and a blank injection and analyzed for ka (on-rate), kd (off-rate), and KD (affinity) using the Kinetic Interaction Tool software (Carterra Inc.).

Binder | Kd
B1 | 3 nM
B2 | 22 nM
B3 | 4.6 nM
B4 | 3.2 nM
B5 | 5.7 nM

target: T2, CD27 on CHO cells (UniProt P26842 20-260, limits assumed); experiment: flow cytometry, mixed CTLA-4+ and CD27+ CHO cells
T2 construct: whole, on cells; also called CD27+ CHO cells; irrelevant antigen (CD27)
Description: To determine if the CTLA-4 mAbs bound the appropriate antigen expressed on the surface of mammalian cells, CHO cell lines stably expressing human CTLA-4 or an irrelevant antigen (CD27) were generated. Cells (0.5×10⁶ each cell line) were combined and washed with MACS buffer (Dulbecco's Phosphate Buffered Saline [DPBS], with 0.5% bovine serum albumin [BSA], and 2 mM ethylenediaminetetraacetic acid [EDTA]). The cells were incubated with 10 μg/mL anti-CTLA-4 for 30 min at 4° C., then excess, unbound mAbs were removed by washing twice with MACS buffer. The cells were then stained with PE-conjugated anti-Human IgG Fc antibody (clone M1310G05, BioLegend 410720, San Diego, Calif., USA) to detect bound anti-CTLA-4 and with fluorescein isothiocyanate (FITC)-conjugated anti-CD27 (clone 0323, BioLegend 302806, San Diego, Calif., USA) to distinguish the cells expressing the irrelevant antigen. Cells were washed twice with MACS buffer, fixed with 4% paraformaldehyde fixation buffer (BioLegend 420801, San Diego, Calif., USA) for 20 minutes at room temperature and washed twice more with MACS buffer. […] Binding of mAbs to CTLA-4 on the cell surface was determined using LSR II (BD Biosciences, San Jose, Calif., USA) or CytoFLEX LX (Beckman Coulter, Brea. Calif., USA) flow cytometers and analyzed using FlowJo (v10.6.1, BD Biosciences, San Jose, Calif., USA).

T2 sequence (P26842 20-260 limits assumed): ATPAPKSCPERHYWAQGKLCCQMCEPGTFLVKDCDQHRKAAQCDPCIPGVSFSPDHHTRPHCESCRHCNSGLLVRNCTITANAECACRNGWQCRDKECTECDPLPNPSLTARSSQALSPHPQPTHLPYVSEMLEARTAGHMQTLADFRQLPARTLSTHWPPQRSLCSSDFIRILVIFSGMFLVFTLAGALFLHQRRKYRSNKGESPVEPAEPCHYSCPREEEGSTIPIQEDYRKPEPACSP

Binder | binding result
B1 | no binding (tested: 10 µg/mL)
B2 | no binding (tested: 10 µg/mL)
B3 | no binding (tested: 10 µg/mL)
B4 | no binding (tested: 10 µg/mL)
B5 | no binding (tested: 10 µg/mL)

target: T3, human CTLA-4 expressed on the cell surface (human, UniProt P16410 36-223); experiment: cell-based or functional assay
T3 sequence (P16410 36-223 limits assumed): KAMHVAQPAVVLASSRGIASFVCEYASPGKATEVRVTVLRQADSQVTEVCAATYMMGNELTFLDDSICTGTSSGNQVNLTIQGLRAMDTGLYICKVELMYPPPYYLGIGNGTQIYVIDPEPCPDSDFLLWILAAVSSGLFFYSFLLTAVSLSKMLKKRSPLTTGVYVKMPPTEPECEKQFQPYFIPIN

Binder | Cell-based blocking activity EC50 | Cell-based blocking activity max signal (RLU)
B1 | 0.15 µg/mL | 444 RLU
B2 | 0.26 µg/mL | 134 RLU
B3 | 0.1 µg/mL | 349 RLU
B4 | 0.09 µg/mL | 73 RLU
B5 | 0.18 µg/mL | 338 RLU

target: T1, His-tagged human CTLA-4 (CT4-H5229; …); experiment: SPR (Carterra); remark: another data set of the same source
Description: as §1, §2, §3

Binder | Kd | koff | kon
B1 | 3 nM | 0.00023 s⁻¹ | 76000 M⁻¹ s⁻¹
B2 | 22 nM | 0.00051 s⁻¹ | 23000 M⁻¹ s⁻¹
B3 | 4.6 nM | 0.00039 s⁻¹ | 85000 M⁻¹ s⁻¹
B4 | 3.2 nM | 0.00042 s⁻¹ | 130000 M⁻¹ s⁻¹
B5 | 5.7 nM | 0.00035 s⁻¹ | 61000 M⁻¹ s⁻¹

target: T3, human CTLA-4 expressed on the cell …; experiment: cell-based or functional assay; remark: another data set of the same source

Binder | Promega assay % inhibition | Promega assay antagonist (EC50, ug/mL)
B1 | 81% | 0.15 µg/mL
B2 | 24.5% | 0.26 µg/mL
B3 | 54.7% | 0.15 µg/mL
B4 | 13.3% | 0.09 µg/mL
B5 | 61.7% | 0.18 µg/mL

target: T4, His-tagged cynomolgus CTLA-4 (CT4-C5227; Acro Biosystems) (cynomolgus, UniProt G7PL88 36-161); experiment: BLI (Octet)
T4 construct: also called soluble cynomolgus CTLA-4; cyno CTLA-4
Description: (§4) The binding specificity and affinity of each full-length antibody towards CTLA-4 were determined using biolayer interferometry (BLI) and/or surface plasmon resonance (SPR). Anti-cyno CTLA-4 and anti-mouse CTLA-4 affinities were tested using ForteBio (BLI). Anti-human CTLA-4 affinities were measured using Carterra (SPR).
(§5) For BLI, antibodies were loaded onto an Anti-Human IgG Fc (AHC) biosensor using the Octet Red96 system (ForteBio). Loaded biosensors were dipped into antigen dilutions beginning at 300 nM, with 6 serial dilutions at 1:3. Kinetic analysis was performed using a 1:1 binding model and global fitting.

T4 sequence (G7PL88 entry or part of it limits assumed, form in doubt): as the sequence (P16410 36-161 limits assumed) above, with S14N, I18T, L106M counted along it

Binder | Kd
B1 | 1.2 nM
B2 | 3.1 nM
B3 | 1 nM
B4 | 9.6 nM
B5 | 1.6 nM

target: mouse CTLA-4 (mouse, UniProt P09793 36-161, limits assumed); experiment: BLI (Octet)
Description: as §4, §5

Sequence of mouse CTLA-4 (P09793 36-161 limits assumed): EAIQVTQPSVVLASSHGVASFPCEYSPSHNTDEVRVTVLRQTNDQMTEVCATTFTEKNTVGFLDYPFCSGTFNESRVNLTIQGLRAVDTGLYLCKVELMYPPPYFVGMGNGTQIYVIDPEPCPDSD

Binder | binding result | Kd
B1 | no binding (tested: 300 nM) | –
B2 | no binding (tested: 300 nM) | –
B3 | no binding (tested: 300 nM) | –
B5 | – | 87.8 nM

target: T3, human CTLA-4 expressed on the cell …; experiment: flow cytometry, 10 µg/mL mAb, geometric MFI
Description: (§6) Table 23. In vitro characterization of scFvs reformatted as full-length antibodies. kon, koff, and KD of the indicated CTLA-4 mAbs for soluble human CTLA-4 was determined by SPR (Carterra). Geometric MFI of the indicated CTLA-4 mAbs bound to CTLA-4⁺ or CD27⁺ CHO cells as detected by a secondary human IgG antibody and flow cytometry. Affinity (KD) of the indicated CTLA-4 mAbs for soluble cynomolgus CTLA-4 was determined by a single antigen concentration BLI measurement (Octet). […] Due to constraints on sample size in each Promega bioassay kit, this set of aCTLA-4 mAbs was analyzed using multiple plates (plate letters correspond to Plate A-D in FIG. 20D).
(§7) To determine if the CTLA-4 mAbs bound the appropriate antigen expressed on the surface of mammalian cells, CHO cell lines stably expressing human CTLA-4 or an irrelevant antigen (CD27) were generated. Cells (0.5×10⁶ each cell line) were combined and washed with MACS buffer (Dulbecco's Phosphate Buffered Saline [DPBS], with 0.5% bovine serum albumin [BSA], and 2 mM ethylenediaminetetraacetic acid [EDTA]). The cells were incubated with 10 μg/mL anti-CTLA-4 for 30 min at 4° C., then excess, unbound mAbs were removed by washing twice with MACS buffer. The cells were then stained with PE-conjugated anti-Human IgG Fc antibody (clone M1310G05, BioLegend 410720, San Diego, Calif., USA) to detect bound anti-CTLA-4 and with fluorescein isothiocyanate (FITC)-conjugated anti-CD27 (clone 0323, BioLegend 302806, San Diego, Calif., USA) to distinguish the cells expressing the irrelevant antigen. Cells were washed twice with MACS buffer, fixed with 4% paraformaldehyde fixation buffer (BioLegend 420801, San Diego, Calif., USA) for 20 minutes at room temperature and washed twice more with MACS buffer.

Binder | MFI of CTLA-4+ CHO cells
B1 | 999
B2 | 641
B3 | 1010
B4 | 1024
B5 | 939

target: T2, CD27 on CHO cells; experiment: flow cytometry, 10 µg/mL mAb, geometric MFI
Description: as §6, §7

Binder | MFI of CD27+ CHO cells
B1 | 16.3
B2 | 15.2
B3 | 18.6
B4 | 17
B5 | 17.8

target: T4, His-tagged cynomolgus CTLA-4 …; experiment: BLI (Octet), single antigen concentration
Description: as §6
Antibodies were loaded at 5 μg/mL onto Protein A biosensors that were dipped into 80 nM antigen, and kinetic constants were calculated using a monovalent model.

Binder | Kd
B1 | 1.2 nM
B2 | 3.1 nM
B3 | 1 nM
B4 | 9.6 nM
B5 | 1.6 nM
